The target in one assay is Ile83Glu anti-HER2 memAb. In words: SPR. For orientation: Surface plasmon resonance follows binding to a sensor surface in real time, without labels.
Assay [1] addresses anti-HER2 memAb (trastuzumab-based, meditope-enabled anti-HER2 antibody). In words: SPR.

Positions of bridges follow the written chain, without caps; N, C: chain ends. No end group written: not given here.

anti-HER2 memAb (trastuzumab-based, meditope-enabled anti-HER2 antibody), sequence (VH, as listed by the source, chain 1 of 2): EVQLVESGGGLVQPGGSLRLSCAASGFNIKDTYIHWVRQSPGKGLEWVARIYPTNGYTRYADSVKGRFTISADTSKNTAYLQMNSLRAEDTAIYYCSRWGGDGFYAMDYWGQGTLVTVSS
anti-HER2 memAb (trastuzumab-based, meditope-enabled anti-HER2 antibody), sequence (VL, as listed by the source, chain 2 of 2): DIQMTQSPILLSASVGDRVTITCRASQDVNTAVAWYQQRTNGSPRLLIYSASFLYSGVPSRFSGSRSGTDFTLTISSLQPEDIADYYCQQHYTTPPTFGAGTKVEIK
Ile83Glu anti-HER2 memAb, sequence (VH, as listed by the source, chain 1 of 2): as the sequence (VH, as listed by the source, chain 1 of 2) above
Ile83Glu anti-HER2 memAb, sequence (VL, as listed by the source, chain 2 of 2): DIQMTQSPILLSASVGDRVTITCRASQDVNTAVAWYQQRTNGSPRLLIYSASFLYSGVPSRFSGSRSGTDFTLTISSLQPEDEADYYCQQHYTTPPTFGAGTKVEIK

By Kd is commonly meant the concentration at which binding is half-saturated. Higher therefore signals lower affinity. Turning to CQFDLSTRRLKC (disulfide 1-12 (inferred)) [original meditope (CQFDLSTRRLKC)], the Kd with Ile83Glu anti-HER2 memAb stood at 0.02 µM.

B1: 5-diphenylalanine long meditope ((Ac)CQFDA(Ph)2STRRLRCGGSK) (peptide)
peptide: Ac-CQFDASTRRLRCGGSK
modifications: disulfide 1-12 (inferred); not fully specified (residue 5); printed as (Ac)CQFDA(Ph)2STRRLRCGGSK
With B1, the Kd in assay [1] was found to be 0.039 µM.

Values taken from PMC5910394 (2018).
